Reference: patent US20190177411

Key:
[1] = molecular target: recombinant Human Pyruvate Dehydrogenase E1-alpha subunit protein (Abcam) (UniProt P08559)
[2] = tested on: purified recombinant His-tagged PDK1 (Abcam)
purified recombinant His-tagged PDK1 (Abcam), sequence (chain, as listed by the source): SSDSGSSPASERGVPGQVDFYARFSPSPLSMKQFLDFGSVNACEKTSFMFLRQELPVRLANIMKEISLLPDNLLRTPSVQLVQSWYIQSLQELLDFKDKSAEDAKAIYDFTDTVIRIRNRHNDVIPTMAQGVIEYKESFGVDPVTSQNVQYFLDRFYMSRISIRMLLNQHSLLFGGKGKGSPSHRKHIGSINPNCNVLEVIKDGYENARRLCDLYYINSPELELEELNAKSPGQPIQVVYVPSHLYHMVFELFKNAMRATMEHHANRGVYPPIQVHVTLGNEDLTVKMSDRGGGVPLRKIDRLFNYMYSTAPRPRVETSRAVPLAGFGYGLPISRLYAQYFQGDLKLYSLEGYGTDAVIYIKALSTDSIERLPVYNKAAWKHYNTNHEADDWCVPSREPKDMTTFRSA

recombinant Human Pyruvate Dehydrogenase E1-alpha subunit protein (Abcam), sequence (P08559 30-390): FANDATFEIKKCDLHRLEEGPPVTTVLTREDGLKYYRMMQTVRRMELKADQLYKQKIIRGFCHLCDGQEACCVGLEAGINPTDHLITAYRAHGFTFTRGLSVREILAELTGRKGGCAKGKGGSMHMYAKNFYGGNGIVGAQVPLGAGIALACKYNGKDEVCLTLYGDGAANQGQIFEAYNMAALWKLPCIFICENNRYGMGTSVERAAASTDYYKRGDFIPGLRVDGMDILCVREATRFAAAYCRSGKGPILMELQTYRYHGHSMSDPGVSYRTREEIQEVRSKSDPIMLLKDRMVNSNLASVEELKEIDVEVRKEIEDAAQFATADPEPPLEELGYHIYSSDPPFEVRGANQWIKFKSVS
Flag-tagged T346A PDK1 mutant, sequence (chain, as listed by the source T346A): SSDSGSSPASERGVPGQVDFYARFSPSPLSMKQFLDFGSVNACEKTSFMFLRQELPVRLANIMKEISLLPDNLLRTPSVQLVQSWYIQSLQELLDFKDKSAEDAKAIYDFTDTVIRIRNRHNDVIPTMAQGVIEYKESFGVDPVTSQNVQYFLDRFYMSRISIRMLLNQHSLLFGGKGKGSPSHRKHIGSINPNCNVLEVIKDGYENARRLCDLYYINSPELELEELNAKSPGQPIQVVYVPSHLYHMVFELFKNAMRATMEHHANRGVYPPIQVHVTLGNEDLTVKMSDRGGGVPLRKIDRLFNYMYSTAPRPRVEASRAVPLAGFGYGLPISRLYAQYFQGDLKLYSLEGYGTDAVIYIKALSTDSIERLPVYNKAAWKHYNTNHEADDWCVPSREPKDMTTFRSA
purified recombinant His-tagged PDK4 (Abcam), sequence (chain, as listed by the source): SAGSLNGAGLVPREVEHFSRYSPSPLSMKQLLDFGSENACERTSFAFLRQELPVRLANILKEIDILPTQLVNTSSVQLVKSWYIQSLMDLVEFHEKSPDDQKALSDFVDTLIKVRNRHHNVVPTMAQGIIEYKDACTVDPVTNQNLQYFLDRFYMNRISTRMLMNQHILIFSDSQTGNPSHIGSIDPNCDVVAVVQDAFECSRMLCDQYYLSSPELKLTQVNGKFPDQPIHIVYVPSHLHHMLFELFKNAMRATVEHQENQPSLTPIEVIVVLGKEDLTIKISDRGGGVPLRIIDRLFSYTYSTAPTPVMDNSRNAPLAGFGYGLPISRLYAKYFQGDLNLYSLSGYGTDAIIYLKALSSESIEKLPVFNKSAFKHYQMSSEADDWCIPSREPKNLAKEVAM

Flag-tagged T346A PDK1 mutant
PDHE1 phosphorylation by Flag immune complexes mixed with recombinant Akt2 and PDHE1, Western blotting [1]: T346A PDK1 mutant was ineffective

Flag-tagged wild type (WT) PDK1 phosphorylated on T346 (by active Akt2 in a kinase assay, or as precipitated from hypoxic PC3 cells)
PDHE1 phosphorylation by Flag immune complexes mixed with recombinant Akt2 and PDHE1, Western blotting [1]: WT PDK1 phosphorylated PDHE1 in the presence of Akt2

kinase active Akt1 (SignalChem)
phosphorylation in a kinase assay, Western blotting with Akt cons Ab [2]: active Akt1 or Akt2 readily phosphorylated PDK1
phosphorylation site by LC-MS/MS of chymotrypsin digests after a kinase assay [2]: Thr346 (T346) was identified ... as the sole phospho-amino acid modified by Akt1 or Akt2, compared to control

purified recombinant His-tagged PDK1 (Abcam)
PDHE1 phosphorylation in a kinase assay with recombinant proteins, Western blotting [1]: active Akt2 increased PDK1 phosphorylation of PDHE1

purified recombinant His-tagged PDK2 (Abcam)
PDHE1 phosphorylation in a kinase assay with active Akt2, Western blotting [1]: increased PDHE1 phosphorylation was detected only in the presence of Akt2 and PDK1, but not PDK2, PDK3 or PDK4

purified recombinant His-tagged PDK3 (Abcam)
PDHE1 phosphorylation in a kinase assay with active Akt2, Western blotting [1]: increased PDHE1 phosphorylation was detected only in the presence of Akt2 and PDK1, but not PDK2, PDK3 or PDK4

purified recombinant His-tagged PDK4 (Abcam)
PDHE1 phosphorylation in a kinase assay with active Akt2, Western blotting [1]: increased PDHE1 phosphorylation was detected only in the presence of Akt2 and PDK1, but not PDK2, PDK3 or PDK4
